Data published in US20080044413A1 (published 2008).

Tests used:
[1] = biological target: T1, Human EphA2-Fc fusion protein (human, UniProt P29317 24-537); assay: method not stated in this paragraph (framework shuffling)
T1 construct: extracellular domain; Expressed in HEK 293 cells; Biotinylated in the capture ELISAs; also called soluble EphA2 Fc fusion protein; not shown: Fc portion of a human IgG1

[2] = biological target: T1, Human EphA2-Fc fusion protein; assay: SPR (Biacore 3000), soluble IgG on immobilized EphA2-Fc
[3] = biological target: T2, human EphA2 (human, UniProt P29317 24-976); assay: cell-based or functional assay
[4] = biological target: T2, human EphA2; assay: cell-based or functional assay; remark: listed apart in the source
[5] = biological target: T2, human EphA2; assay: cell-based or functional assay; remark: listed apart in the source
[6] = biological target: T2, human EphA2; assay: cell-based or functional assay; remark: listed apart in the source
[7] = biological target: T2, human EphA2; assay: cell-based or functional assay; remark: listed apart in the source
[8] = biological target: T2, human EphA2; assay: cell-based or functional assay; remark: listed apart in the source
[9] = biological target: T1, Human EphA2-Fc fusion protein; assay: SPR, immobilized EphA2-Fc surface; (MT)
Description: (§1) The formation and dissociation of BiTE/EphA2 complexes was monitored by surface plasmon resonance using a Biacore 3000 system. For this purpose, EphA2 Fc fusion protein was immobilized on a sensor chip with a CM5 carboxymethylated dextran matrix. Optimal immobilization conditions were identified through pH scouting (sodium acetate pH 4.0 to pH 5.5; disodium tetraborate pH 8.5). The optimal pH value was pH 4.0. After immobilization of 1000 RU to flow cell 2, 5,000 RU to flow cell 3 and 400 RU to flow cell 4, excess reactive groups were deactivated by ethanolamine. The affinity of the anti-EphA2 BiTE to immobilized EphA2 was determined by injecting different concentrations of the analyte deimmunized anti-CD3×EA2 VHVL diluted in HBS-EP buffer. To regenerate the surface, REGEN buffer (50 mM NaOH; 20 mM MES; 1 mM NaCl pH 6.4) was used.

[10] = biological target: T1, Human EphA2-Fc fusion protein; assay: SPR, immobilized EphA2-Fc surface; (MedI)
[11] = biological target: T3, soluble CD3εγ (human, UniProt P07766 23-118; P09693 23-103); assay: SPR, immobilized soluble CD3εγ surface; estimate, biphasic association
T3 construct: Amine-coupled to a CM5 chip

[12] = biological target: T1, Human EphA2-Fc fusion protein; assay: SPR (Biacore 3000), EphA2 Fc fusion protein immobilized on CM5, BiTE as analyte
Description: as §1

[13] = biological target: T1, Human EphA2-Fc fusion protein; assay: method and format of the clone not stated in this paragraph (framework shuffling)
[14] = biological target: T4, cynomolgus EphA2 (cynomolgus, UniProt Q1KL86 24-976); assay: flow cytometry on cynomolgus EphA2 transfected CHO cells, antibody 10 µg/ml, AlexaFluor 488 anti-mouse or anti-human IgG (H+L)
T4 construct: whole, on cells; also called cynomolgus EphA2 expressed on transfected CHO cells
T4 sequence (Q1KL86 24-976): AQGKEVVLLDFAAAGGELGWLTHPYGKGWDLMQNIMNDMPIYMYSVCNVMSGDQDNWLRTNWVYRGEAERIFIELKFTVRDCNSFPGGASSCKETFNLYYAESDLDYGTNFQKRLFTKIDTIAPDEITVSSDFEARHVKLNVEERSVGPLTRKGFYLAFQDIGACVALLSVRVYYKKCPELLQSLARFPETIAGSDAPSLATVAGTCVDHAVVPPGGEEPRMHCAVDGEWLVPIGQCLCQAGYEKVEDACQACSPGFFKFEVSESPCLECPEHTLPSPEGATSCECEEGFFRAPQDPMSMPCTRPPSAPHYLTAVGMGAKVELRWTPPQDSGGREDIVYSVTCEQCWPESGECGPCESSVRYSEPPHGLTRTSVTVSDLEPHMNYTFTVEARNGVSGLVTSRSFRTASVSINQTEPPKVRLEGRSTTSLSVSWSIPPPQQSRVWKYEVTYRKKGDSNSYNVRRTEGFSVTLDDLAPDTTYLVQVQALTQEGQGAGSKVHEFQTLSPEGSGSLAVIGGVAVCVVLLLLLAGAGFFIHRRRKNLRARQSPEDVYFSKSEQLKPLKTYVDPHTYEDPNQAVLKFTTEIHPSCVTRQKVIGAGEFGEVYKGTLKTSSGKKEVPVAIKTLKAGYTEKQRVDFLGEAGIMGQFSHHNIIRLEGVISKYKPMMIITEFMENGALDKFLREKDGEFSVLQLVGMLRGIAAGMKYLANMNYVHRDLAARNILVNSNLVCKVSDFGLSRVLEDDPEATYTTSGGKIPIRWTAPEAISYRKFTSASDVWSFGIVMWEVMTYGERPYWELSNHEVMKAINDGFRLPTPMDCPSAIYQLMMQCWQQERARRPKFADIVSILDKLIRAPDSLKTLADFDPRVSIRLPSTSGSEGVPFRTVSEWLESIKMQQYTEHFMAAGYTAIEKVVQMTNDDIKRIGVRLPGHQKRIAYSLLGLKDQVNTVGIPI
Protocol: Subconfluent monolayers of SW480 colon carcinoma or cynomolgus EphA2 transfected CHO cells were quickly trypsinized, washed, counted, plated into 96-well round bottom plates, and stained with 10 μg/ml of a negative control antibody (R347), the anti-human EphA2 murine antibody, EA2 (Coffman 2003), or humanized antibodies, 3F2 and 4H5. Cells were resuspended in AlexaFluor 488 anti-mouse or anti-human IgG H+L (Invitrogen) and then analyzed by flow cytometry using a FACSCalibur (Becton Dickinson).

B1: Humanized 2G6 (antibody, human IgG1, V domains shown)
VH: EVQLVESGGGVVRPGGSLRLSCAASGFTVSDYSMNWVRQAPGKGLEWIGFIRNKANDYTTEYSASVKGRFTISRDDSKNTLYLQMNSLKTEDTAVYYCTTYPRYHAMDSWGQGTMVTVSS
VL: AIQLTQSPSSLSASVGDRVTITCRASQSISNNLHWYLQKPGQSPQLLIYYVFQSISGVPSRFSGSGSGTDFTLTISSLQPEDFATYYCQQSNSWPLTFGGGTKLEIK
notes: Framework-shuffled humanized B233; human IgG1 with human kappa chain in the Biacore analysis
- fold loss of affinity compared with chimaeric mAb B233 [1]: ~10 fold
- Kd [2]: 0.003 µM
- koff [2]: 0.00019 s⁻¹
- kon [2]: 64000 M⁻¹ s⁻¹

B2: EphA2-BiTE deimmunized anti-CD3 (VH/VL) × EA2 (VH/VL) (bispecific antibody)
chain: DVQLVQSGAEVKKPGASVKVSCKASGYTFTRYTMHWVRQAPGQGLEWIGYINPSRGYTNYADSVKGRFTITTDKSTSTAYMELSSLRSEDTATYYCARYYDDHYCLDYWGQGTTVTVSSGEGTSTGSGGSGGSGGADDIVLTQSPATLSLSPGERATLSCRASQSVSYMNWYQQKPGKAPKRWIYDTSKVASGVPARFSGSGSGTDYSLTINSLEAEDAATYYCQQWSSNPLTFGGGTKVEIKSGGGGSDVKLVESGGGLVKPGGSLKLSCAASGFTFSSYTMSWVRQTPEKRLEWVATISSGGTYTYYPDSVKGRFTISRDNAKNTLYLQMSSLKSEDTAMYYCTREAIFTYWGQGTLVTVSSGGGGSGGGGSGGGGSDIKMTQSPSSMYASLGERVTITCKASQDINNYLSWFQQKPGKSPKTLIYRANRLVDGVPSRFSGSGSGQDYSLTISSLEYEDMGIYYCLKYDEFPYTFGGGTKLEIKHHHHHH
notes: C-terminal His tag; Purified monomer from CHO cells; also called deimmunized anti-CD3×EA2 (VH/VL); deimmunized anti-CD3-EA2(VH/VL)
- EC50 of tumor cell killing, ACHN cells [3]: 3 ng/mL
- EC50 of tumor cell killing, Caki 2 cells [3]: 30 ng/mL
- EC50 of tumor cell killing, DU145 cells [3]: 0.8 ng/mL
- EC50 of tumor cell killing, PC3 cells [3]: 6 ng/mL
- EC50 of tumor cell killing, SW480 cells [3]: 6 ng/mL
- median EC50 of tumor cell killing, SW480 targets, 49 donors [3]: 24 ng/mL
- EC50 of redirected lysis, 51Cr release, A549 [4]: 123 ng/mL
- EC50 of redirected lysis, 51Cr release, A549, second experiment [4]: 24.8 ng/mL
- EC50 of redirected lysis, 51Cr release, MDA MB231 [4]: 5.8 ng/mL
- EC50 of redirected lysis, 51Cr release, MDA MB231, second experiment [4]: 8.6 ng/mL
- EC50 of redirected lysis, A549, PBMC effectors, batch 040507PMa02 [5]: 32.8 ng/mL
- EC50 of redirected lysis, A549, PBMC effectors, batch 040907USy02 [5]: 10.2 ng/mL
- EC50 of redirected lysis, A549, stimulated CD8 T-cells, batch 040507PMa02 [5]: 3.3 ng/mL
- EC50 of redirected lysis, A549, stimulated CD8 T-cells, batch 040907USy02 [5]: 1.6 ng/mL
- EC50 of redirected lysis, MDA MB 231, PBMC effectors, batch 040507PMa02 [5]: 7.6 ng/mL
- EC50 of redirected lysis, MDA MB 231, PBMC effectors, batch 040907USy02 [5]: 3.2 ng/mL
- EC50 of redirected lysis, MDA MB 231, stimulated CD8 T-cells, batch 040507PMa02 [5]: 0.7 ng/mL
- EC50 of redirected lysis, MDA MB 231, stimulated CD8 T-cells, batch 040907USy02 [5]: 0.5 ng/mL
- EC50 of redirected lysis, A549, NK cell-depleted PBMC of Donor #1 [6]: 20.9 ng/mL
- EC50 of redirected lysis, A549, NK cell-depleted PBMC of Donor #2 [6]: 22.6 ng/mL
- EC50 of redirected lysis, A549, NK cell-depleted PBMC of Donor #3 [6]: 24.8 ng/mL
- EC50 of redirected lysis, A549, NK cell-depleted PBMC of Donor #4 [6]: 28.5 ng/mL
- EC50 of redirected lysis, A549, NK cell-depleted PBMC of Donor #6 [6]: 32.8 ng/mL
- EC50 of redirected lysis, A549, NK cell-depleted PBMC of Donor #7 [6]: 6.6 ng/mL
- EC50 of redirected lysis, MDA-MB 231, NK cell-depleted PBMC of Donor #1 [6]: 15.4 ng/mL
- EC50 of redirected lysis, MDA-MB 231, NK cell-depleted PBMC of Donor #2 [6]: 5.8 ng/mL
- EC50 of redirected lysis, MDA-MB 231, NK cell-depleted PBMC of Donor #3 [6]: 8.6 ng/mL
- EC50 of redirected lysis, MDA-MB 231, NK cell-depleted PBMC of Donor #4 [6]: 23.9 ng/mL
- EC50 of redirected lysis, MDA-MB 231, NK cell-depleted PBMC of Donor #5 [6]: 1.9 ng/mL
- EC50 of redirected lysis, MDA-MB 231, NK cell-depleted PBMC of Donor #6 [6]: 7.6 ng/mL
- EC50 of redirected lysis, MDA-MB 231, NK cell-depleted PBMC of Donor #7 [6]: 3.2 ng/mL
- EC 50 of lysis, 51Cr release, B16 F10 EphA2 transfected cells, stimulated human CD8 T-cells, E:T 10:1, 18 h [7]: 21.7 ng/mL
- EC50 of cytotoxic activity, 51Cr release, MDA-MB231 target cells, NK cell-depleted PBMC, E:T 10:1, 18 h; BiTE diluted directly before assay in medium (control) [8]: 1.9 ng/mL
- EC50 of cytotoxic activity, 51Cr release, MDA-MB231 target cells, NK cell-depleted PBMC, E:T 10:1, 18 h; BiTE diluted directly before assay in plasma (control) [8]: 2 ng/mL
- EC50 of cytotoxic activity, 51Cr release, MDA-MB231 target cells, NK cell-depleted PBMC, E:T 10:1, 18 h; BiTE kept 24 h in plasma at 4° C. before the assay [8]: 2.2 ng/mL
- EC50 of cytotoxic activity, 51Cr release, MDA-MB231 target cells, NK cell-depleted PBMC, E:T 10:1, 18 h; BiTE kept 24 h in plasma at 37° C. before the assay [8]: 3.1 ng/mL
- Kd [9]: 0.045 µM
- Kd [10]: 0.113 µM
- Kd [11]: 0.4 to 0.5 µM
- Kd [12]: 0.0446 µM
- koff [12]: 0.0426 s⁻¹
- kon [12]: 956000 M⁻¹ s⁻¹

B3: humanized anti-human EphA2 mAb 4H5 (antibody, V domains shown)
VH: QVQLLESGGGLVQPGGSLRLSCAASGFTFSSYTMSWVRQAPGQALEWMGTISSGGTYTYYPDSVKGRFTISRDNAKNSLYLQMNSLRAEDTAVYYCAREAIFTYWGRGTLVTVSS
VL: DIQLTQSPSSLSASVGDRVTITCKASQDINNYLSWYQQKPGQAPRLLIYRANRLVDGVPDRFSGSGYGTDFTLTINNIESEDAAYYFCLKYDVFPYTFGQGTKVEIK
notes: Humanized from EA2 by framework shuffling; detected with anti-human IgG; also called humanized clone 4H5
- fold increase of affinity compared with chimaeric Fab EA2 [13]: ~20 fold
- binding result [14]: binds
